Experimental data as given in patent US20060030015A1 (published 2006).

What was measured:
[1] = molecular target: CDR1 antigen peptide (…), synthetic peptide of CDR 1 of the light chain of antibody 41S-2; experiment: cell-based or functional assay
[2] = molecular target: HSA (human, UniProt P02768 25-609); experiment: ELISA (immunoassay of Experiment 3-3), absorbance at 405 nm
Excerpt: (§1) The blocking was applied with 2% gelatin at room temperature.

[3] = molecular target: T1, OVA (UniProt P01012 2-386); experiment: as above
T1 sequence (looked up): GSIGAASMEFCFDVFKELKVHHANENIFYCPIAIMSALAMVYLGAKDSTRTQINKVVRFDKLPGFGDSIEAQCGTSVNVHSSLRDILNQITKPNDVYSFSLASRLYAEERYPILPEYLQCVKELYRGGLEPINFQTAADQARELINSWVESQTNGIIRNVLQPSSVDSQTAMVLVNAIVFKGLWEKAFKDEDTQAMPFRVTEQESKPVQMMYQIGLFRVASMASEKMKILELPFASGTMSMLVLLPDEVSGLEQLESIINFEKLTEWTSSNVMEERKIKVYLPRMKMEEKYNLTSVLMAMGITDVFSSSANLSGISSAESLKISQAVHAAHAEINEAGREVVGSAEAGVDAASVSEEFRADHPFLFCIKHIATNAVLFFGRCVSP
Excerpt: as §1

[4] = molecular target: ECL2B peptide (…), partial peptide of CCR-5 (human); experiment: cell-based or functional assay
[5] = molecular target: ECL2B peptide (sequence No.38) as named in Experiment 3-9 (human); experiment: cell-based or functional assay
[6] = molecular target: peptide TP41-1 of a retention region of gp41 (HIV-1) (…) (HIV-1); experiment: cell-based or functional assay

Chain of HSA (P02768 25-609): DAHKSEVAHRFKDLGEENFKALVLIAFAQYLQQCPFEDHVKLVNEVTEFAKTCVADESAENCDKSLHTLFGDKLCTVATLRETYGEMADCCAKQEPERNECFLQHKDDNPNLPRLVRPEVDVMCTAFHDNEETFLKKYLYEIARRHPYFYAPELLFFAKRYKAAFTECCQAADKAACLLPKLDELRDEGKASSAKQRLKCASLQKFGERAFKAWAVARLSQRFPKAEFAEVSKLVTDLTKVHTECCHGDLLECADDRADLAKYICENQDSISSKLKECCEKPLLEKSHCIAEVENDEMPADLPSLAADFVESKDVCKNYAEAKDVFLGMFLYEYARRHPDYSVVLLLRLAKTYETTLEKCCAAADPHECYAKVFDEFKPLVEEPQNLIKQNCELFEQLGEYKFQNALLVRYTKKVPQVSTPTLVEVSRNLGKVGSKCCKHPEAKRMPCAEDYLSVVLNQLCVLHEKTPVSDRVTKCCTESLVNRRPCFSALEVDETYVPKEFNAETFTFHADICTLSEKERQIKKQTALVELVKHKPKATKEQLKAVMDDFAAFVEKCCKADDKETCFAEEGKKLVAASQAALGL
Chain of ECL2B peptide (…), partial peptide of CCR-5 (human) (peptide, as listed by the source): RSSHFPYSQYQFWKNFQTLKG

B1: light chain of i41SL1-2 antibody (i41SL1-2-L) (protein)
VL: DIVMTQTQLTLTINIGQPASISCKSSQSLLDSDGKTYLNWLFQRPGQSPKRLIYLVSKLDSGVPDRFTGSGSGTDFTLKISRVEAEDLGVYYCWQGTHFPLTFGAGTKLELRRA
[1]
  Km: 2 µM
  kcat: 0.0102 s⁻¹
  kcat/Km: 5170 M⁻¹ s⁻¹

B2: heavy chain of i41SL1-2 antibody (i41SL1-2-H) (protein)
VH: QVQLQHSGAELVRPGSSVKVSCKALGYTSTDYEIHWVKQTPVRGLEWIGAIHPGSDVIVYNQKFKGTATLTADKSSSTAYMELRSLTSEDSAVYYCTREGGSVDYVWGQGTLVTVSA
[1]
  Km: 13 µM
  kcat: 0.0103 s⁻¹
  kcat/Km: 812 M⁻¹ s⁻¹

B3: monoclonal antibody ECL2B-2 (antibody, V domains shown)
VH: DVKLVESGGGLVKPGGSLKLSCAASGFTFSRYTMSWVRQTPEKRLEWVATISSGGSYTYYPDSVKGRFTISRDIAKNTLYLQMSSLKSEDTALYYCTREGGYGAFASWGQGTLVTVS
VL: DVLMTQTPLSLPVSLGDQASISCRSSQSIVHSNGNTYLEWYLQKPGQSPKLLIYKVSNRFSGVPDRFSGSGSGTDFTLKINRVAAEDLGVYYCFQGSHVPWTFGGGTKLEIKR
notes: also called intact monoclonal antibody ECL2B-2
[2]
  binding result: no binding
[3]
  binding result: no binding

B4: monoclonal antibody ECL2B-3 (antibody, V domains shown)
VH: QIQLVQSGPELKKPGETVKISCKASGYTFTNYGMNWVKQAPGKGLEWMGWINTYTGEPTYAGDFMGRSVFSLETSASTAYLQINNLENKDTATYICARSGSPYAMDYWGQGTSVTVS
VL: DIALTQSPASLAVSLGQRATISCKASQSVDYDGDSYMNWFQQKPGQPPKLLIYAASNLESGIPGRFSGSGSGTDFTLNIHPVEEEDIATYYCQQSYEDPFTFGSGTILDIKR
[2]
  binding result: no binding
[3]
  binding result: no binding

B5: light chain of ECL2B-2 (ECL2B-2-L) (protein)
VL: DVLMTQTPLSLPVSLGDQASISCRSSQSIVHSNGNTYLEWYLQKPGQSPKLLIYKVSNRFSGVPDRFSGSGSGTDFTLKINRVAAEDLGVYYCFQGSHVPWTFGGGTKLEIKRA
[4]
  time until the ECL2B peptide disappeared (RP-HPLC): 90 h

B6: light chain of ECL2B-4 (ECL2B-4-L) (protein)
VL: DVLMTQTPLSLPVSLGDQASISCRSSQSIVHSNGNTYLEWYLQKPGQSPKFLIYKVSNRFSGVPDRFSGSGSGTDFTLKISRVETEDLGVYYCFQGSHVPWTFGGGTKLEIKRA
[5]
  Km: 35 µM
  Vmax: 0.31 µM/min
  kcat: 0.012 s⁻¹
  kcat/Km: 367 M⁻¹ s⁻¹
[6]
  Km: 12.5 µM
  Vmax: 0.0624 µM/min
  kcat: 0.00267 s⁻¹
  kcat/Km: 208 M⁻¹ s⁻¹
